Here are results for two molecules from publication PMC9321131.

Where two headings read alike, the source gives them in different places.

Data set [1] deals with T1, rPvSPL2 (GST-PvSPL2) (Panicum virgatum, UniProt A0A8T0WHV5 1-470).
T1 sequence: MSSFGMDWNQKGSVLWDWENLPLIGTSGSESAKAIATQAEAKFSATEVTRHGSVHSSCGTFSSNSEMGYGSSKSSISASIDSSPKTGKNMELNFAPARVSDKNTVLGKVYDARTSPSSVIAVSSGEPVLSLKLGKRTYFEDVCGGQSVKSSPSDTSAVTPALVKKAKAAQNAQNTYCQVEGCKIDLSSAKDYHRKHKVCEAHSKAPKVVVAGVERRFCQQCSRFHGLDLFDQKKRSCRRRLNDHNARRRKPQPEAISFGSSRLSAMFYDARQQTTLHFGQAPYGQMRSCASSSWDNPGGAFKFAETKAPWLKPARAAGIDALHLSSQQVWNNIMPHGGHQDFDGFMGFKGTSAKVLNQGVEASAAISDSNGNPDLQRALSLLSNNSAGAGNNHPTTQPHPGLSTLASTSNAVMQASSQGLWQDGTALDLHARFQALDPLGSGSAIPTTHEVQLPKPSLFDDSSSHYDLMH
Briefly: EMSA. (In general: A gel shift assay detects complexes by their altered migration in electrophoresis.)

Data set [2] addresses T1, rPvSPL2 (GST-PvSPL2). Put plainly: EMSA. This is another data set of the same source.

B1: PvLBO promoter probe 1 (site 1) (dsDNA)
DNA 1: CCCCCCAAACGTACTATTTACTAT
DNA 2: ATAGTAAATAGTACGTTTGGGGGG
On to B1, for which the binding result with rPvSPL2 (GST-PvSPL2) [1] is reported as “binds”.

B2: PvLBO promoter probe 2 (site 2) (dsDNA)
DNA 1: TACAATATTTGTACTGTCATAATA
DNA 2: TATTATGACAGTACAAATATTGTA
As for B2, the binding result with rPvSPL2 (GST-PvSPL2) [2] is “binds”.
